Measurements as given in paper PMC5956896.

Legend:
Experiment in all cases: pull-down
[1] = target: His6-GB1 tagged ITK PHTH (C96E/T110I) domain
ITK PHTH L51D = target: ITK PHTH L51D
ITK PHTH E56A = target: ITK PHTH E56A

Question: Which results are given for “His6 tagged mouse ITK kinase domain (residues 356-619) (domain or fragment)”?
Answer: disruption of the interaction by 5 μM IP(1,3,4,5)P4 [1]: > 50%; decrease in binding compared to wild type ITK PHTH (ITK PHTH L51D): 50%; decrease in binding compared to wild type ITK PHTH (ITK PHTH E56A): 50%
